Laboratory results reported in US20160041176A1 (NATIONAL UNIVERSITY CORPORATION NAGOYA UNIVERSITY, published 2016).

Tests used:
[1] = target: F-actin (filamentous actin); assay: actin cosedimentation, 1 µM GST-CT2 with 0-2.5 µM F-actin, Scatchard analysis
[2] = tested on: T1, GST-CT (GST-fused CT domain of Girdin)
T1 sequence: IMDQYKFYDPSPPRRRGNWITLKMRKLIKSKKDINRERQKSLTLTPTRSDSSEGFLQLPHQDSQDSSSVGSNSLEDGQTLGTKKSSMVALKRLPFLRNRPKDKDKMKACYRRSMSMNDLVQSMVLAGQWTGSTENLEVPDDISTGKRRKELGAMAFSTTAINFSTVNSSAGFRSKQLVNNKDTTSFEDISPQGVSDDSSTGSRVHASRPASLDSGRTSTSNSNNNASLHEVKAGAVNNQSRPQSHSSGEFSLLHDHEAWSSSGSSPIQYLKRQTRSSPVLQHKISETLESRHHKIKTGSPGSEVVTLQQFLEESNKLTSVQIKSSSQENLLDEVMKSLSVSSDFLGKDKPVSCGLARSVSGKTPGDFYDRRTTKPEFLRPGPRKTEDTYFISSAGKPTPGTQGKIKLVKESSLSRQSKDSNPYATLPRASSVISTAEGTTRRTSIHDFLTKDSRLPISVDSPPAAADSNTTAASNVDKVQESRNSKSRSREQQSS

[3] = tested on: T2, Girdin CT-V5 SA mutant (serine 1416 replaced with alanine)
T2 sequence: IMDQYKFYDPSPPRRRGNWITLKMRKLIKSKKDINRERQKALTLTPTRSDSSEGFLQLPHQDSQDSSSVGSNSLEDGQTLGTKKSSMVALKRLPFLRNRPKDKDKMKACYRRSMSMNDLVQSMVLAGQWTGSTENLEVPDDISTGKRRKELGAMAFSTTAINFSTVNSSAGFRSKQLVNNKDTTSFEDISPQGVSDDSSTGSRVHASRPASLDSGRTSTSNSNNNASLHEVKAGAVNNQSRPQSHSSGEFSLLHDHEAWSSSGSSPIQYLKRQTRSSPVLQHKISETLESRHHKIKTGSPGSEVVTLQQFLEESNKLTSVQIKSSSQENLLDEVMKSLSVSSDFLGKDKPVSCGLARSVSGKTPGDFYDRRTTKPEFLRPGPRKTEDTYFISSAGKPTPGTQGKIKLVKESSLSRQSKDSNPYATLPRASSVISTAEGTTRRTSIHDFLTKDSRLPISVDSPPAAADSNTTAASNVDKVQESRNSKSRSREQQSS

[4] = tested on: T3, Girdin CT-V5 wild type (WT)
T3 sequence: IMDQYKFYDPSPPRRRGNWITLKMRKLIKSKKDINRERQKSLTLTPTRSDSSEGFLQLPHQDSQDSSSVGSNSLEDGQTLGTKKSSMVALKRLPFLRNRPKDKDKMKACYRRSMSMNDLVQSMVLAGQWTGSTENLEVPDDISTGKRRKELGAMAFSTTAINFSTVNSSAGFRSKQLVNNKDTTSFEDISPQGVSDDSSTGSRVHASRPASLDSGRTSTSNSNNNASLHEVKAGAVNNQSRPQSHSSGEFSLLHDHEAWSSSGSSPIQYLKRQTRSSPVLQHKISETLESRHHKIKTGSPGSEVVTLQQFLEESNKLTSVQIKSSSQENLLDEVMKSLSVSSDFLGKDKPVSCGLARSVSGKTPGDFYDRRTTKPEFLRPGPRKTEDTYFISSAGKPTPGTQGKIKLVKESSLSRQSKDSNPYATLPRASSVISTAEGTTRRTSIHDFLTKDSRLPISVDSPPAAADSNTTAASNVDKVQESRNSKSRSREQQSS

[5] = tested on: T4, V5 epitope-tagged NT domain of Girdin (NT-V5)
T4 sequence: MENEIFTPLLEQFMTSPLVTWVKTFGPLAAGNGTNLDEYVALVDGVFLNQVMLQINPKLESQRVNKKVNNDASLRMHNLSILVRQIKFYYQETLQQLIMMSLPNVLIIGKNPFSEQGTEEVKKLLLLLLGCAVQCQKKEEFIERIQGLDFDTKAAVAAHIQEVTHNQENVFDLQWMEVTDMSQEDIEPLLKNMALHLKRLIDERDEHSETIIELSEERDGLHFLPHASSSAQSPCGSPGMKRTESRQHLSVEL

[6] = tested on: T5, coiled-coil domain of Girdin tagged with V5
T5 sequence: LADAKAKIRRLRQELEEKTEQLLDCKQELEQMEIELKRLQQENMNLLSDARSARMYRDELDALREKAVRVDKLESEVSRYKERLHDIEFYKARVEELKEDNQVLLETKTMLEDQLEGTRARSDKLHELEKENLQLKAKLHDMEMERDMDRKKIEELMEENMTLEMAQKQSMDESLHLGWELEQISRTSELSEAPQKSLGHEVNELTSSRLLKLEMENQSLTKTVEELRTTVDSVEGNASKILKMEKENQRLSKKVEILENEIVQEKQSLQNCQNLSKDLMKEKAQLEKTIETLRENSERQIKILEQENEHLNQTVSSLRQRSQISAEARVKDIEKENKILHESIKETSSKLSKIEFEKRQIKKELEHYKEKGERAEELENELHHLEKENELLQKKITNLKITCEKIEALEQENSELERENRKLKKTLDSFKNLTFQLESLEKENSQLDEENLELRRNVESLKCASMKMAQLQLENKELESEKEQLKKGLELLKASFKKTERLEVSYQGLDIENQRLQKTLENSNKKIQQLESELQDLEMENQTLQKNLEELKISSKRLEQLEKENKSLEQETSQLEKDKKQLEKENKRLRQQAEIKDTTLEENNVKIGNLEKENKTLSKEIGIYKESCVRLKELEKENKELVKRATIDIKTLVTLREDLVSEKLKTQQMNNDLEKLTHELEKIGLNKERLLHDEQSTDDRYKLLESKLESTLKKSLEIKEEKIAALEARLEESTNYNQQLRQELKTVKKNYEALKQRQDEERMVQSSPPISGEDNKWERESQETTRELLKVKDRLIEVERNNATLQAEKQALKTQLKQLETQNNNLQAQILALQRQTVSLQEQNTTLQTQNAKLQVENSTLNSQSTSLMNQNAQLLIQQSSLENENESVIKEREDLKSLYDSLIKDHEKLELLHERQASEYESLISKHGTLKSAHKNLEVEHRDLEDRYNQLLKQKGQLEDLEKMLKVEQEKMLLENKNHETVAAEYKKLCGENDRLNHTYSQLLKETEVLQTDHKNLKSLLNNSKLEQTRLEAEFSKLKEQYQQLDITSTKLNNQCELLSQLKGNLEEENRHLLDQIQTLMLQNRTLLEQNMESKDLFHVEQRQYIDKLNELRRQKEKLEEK

[7] = target: the molecule itself; assay: expression in COS7 cells, coimmunoprecipitation (data not shown)

“glutathione S-transferase (GST)-fused CT2 of Girdin (GST-CT2) (from UniProt Q3V6T2 1624-1871)” gave a Kd [1] of 1030 nM.

For recombinant active Akt (Upstate), the “in vitro kinase assay (phosphorylation detected by anti-P-Girdin antibody)” value [2] was “Purified GST-CT was effectively phosphorylated by Akt in vitro”, the “in vitro kinase assay (phosphorylation, autoradiography)” value [3] was “but not its Ser-1416 substituted with Ala mutant (SA), was phosphorylated by active Akt” and the “in vitro kinase assay (phosphorylation, autoradiography)” value [4] was “Girdin CT wild type (WT) ... was phosphorylated by active Akt”. For the same molecule, the “in vitro kinase assay (phosphorylation, autoradiography)” value [5] was “neither the NT nor the coiled-coil domain of Girdin was phosphorylated by Akt in vitro” and the “in vitro kinase assay (phosphorylation, autoradiography)” value [6] was “neither the NT nor the coiled-coil domain of Girdin was phosphorylated by Akt in vitro”.

B1: CT domain of Girdin (expressed in cells, oligomerisation test) (other)
chain: IMDQYKFYDPSPPRRRGNWITLKMRKLIKSKKDINRERQKSLTLTPTRSDSSEGFLQLPHQDSQDSSSVGSNSLEDGQTLGTKKSSMVALKRLPFLRNRPKDKDKMKACYRRSMSMNDLVQSMVLAGQWTGSTENLEVPDDISTGKRRKELGAMAFSTTAINFSTVNSSAGFRSKQLVNNKDTTSFEDISPQGVSDDSSTGSRVHASRPASLDSGRTSTSNSNNNASLHEVKAGAVNNQSRPQSHSSGEFSLLHDHEAWSSSGSSPIQYLKRQTRSSPVLQHKISETLESRHHKIKTGSPGSEVVTLQQFLEESNKLTSVQIKSSSQENLLDEVMKSLSVSSDFLGKDKPVSCGLARSVSGKTPGDFYDRRTTKPEFLRPGPRKTEDTYFISSAGKPTPGTQGKIKLVKESSLSRQSKDSNPYATLPRASSVISTAEGTTRRTSIHDFLTKDSRLPISVDSPPAAADSNTTAASNVDKVQESRNSKSRSREQQSS
B1: no binding [7].
